{"source": "patent US6551840B2", "about": "“Method of screening TGF-β-inhibiting substances” (Chugai Seiyaku Kabushiki Kaisha, priority 1997, dated 2003)", "key": {"[1]": {"test_system": "human fibroblast-derived HT-1080", "test": "Fibronectin EIA in HT-1080 cells expressing TAK1-DN with or without TGF-β", "format": "cell-based", "conditions": "1 ng/ml TGF-β, 24 hours; for increase of fibronectin in the culture supernatant by TGF-β addition: control HT/NEO about 6.1 fold; for increase of fibronectin in the extracellular matrix extract by TGF-β addition: control HT/NEO about 11.4 fold", "text": "Then, pTAK1DN or pCOS1 that contains no inserted genes as a control vector was linearized by digesting with a restriction enzyme PvuI. These linearized vectors were introduced by electroporation into human fibroblast-derived HT-1080 (ATCC CCL 121), a mouse kidney mesangial cell line SV40MES13 (ATCC CRL 1927), and a mink pulmonary epithelial cell line Mv1Lu (ATCC CCL 64), and cells into which the gene was introduced were selected using G418 (manufactured by GIBCO-BRL).\nThe human fibroblast-derived HT-1080 cells (HT/DN2 and HT/DN14) into which pTAK1DN had been introduced and the control cells (HT/NEO) into which pCOS1 containing no inserted genes had been introduced were incubated in a low-serum medium (Medium 199 containing 0.2% FBS; manufactured by GIBCO BRL) with or without 1 ng/ml TGF-β (manufactured by King Jozo) for 24 hours. The amount of fibronectin in the culture supernatant or the extracellular matrix extract prepared using 1 M urea solution (1 M urea, 1 mM DTT, 10 mM Tris-HCl, pH 7.4, 10 mM EDTA, Protease inhibitor cocktail (CompleteTM, manufactured by Boehringer-Mannheim)) was determined by the EIA method.\nThus, 100 μl of the culture supernatant or the extracellular matrix extract prepared using 1 M urea solution was added to a 96-well microtiter plate (manufactured by Nunc), and the plate was incubated overnight at 4° C. After washing, it was blocked using a 1% BSA solution (50 mM Tris-HCl, pH 8.0, 1 mM MgCl2, 150 mM NaCl, 0.05% Tween 20, 0.02% sodium azide), and then 10000 fold-diluted rabbit anti-human fibronectin antibody (manufactured by CALBIOCHEM) was added to the above 1% BSA solution, and was further incubated at room temperature for 2 hours.\nAfter washing, alkaline phosphatase-labeled goat anti-rabbit Ig antibody (manufactured by TAGO) was added, and was further incubated at room temperature for one hour. Then the substrate solution (p-nitrophenyl phosphate; manufactured by Sigma) was added and absorbance at […] was measured. As a standard, human fibronectin (manufactured by Cappel) was used."}, "[2]": {"test_system": "mouse kidney mesangial cell line SV40MES13", "test": "Type I and type IV collagen EIA in SV40MES13 cells expressing TAK1-DN with or without TGF-β", "format": "cell-based", "conditions": "2.5 ng/ml TGF-β, 24 hours; for increase of type IV collagen in the culture supernatant by TGF-β addition: control MES/NEO about 2.0 fold; for increase of type I collagen in the culture supernatant by TGF-β addition: control MES/NEO about 3.6 fold", "experimental": "The mouse mesangial cell line SV40MES13 (MES/DN3 and MES/DN6) into which pTAK1DN had been introduced and the control cells (MES/NEO) into which pCOS1 containing no inserted genes had been introduced were incubated in a low-serum medium (Medium 199 containing 0.2% FBS) with or without 2.5 ng/ml TGF-β for 24 hours. The amount of fibronectin in the culture supernatant or the extracellular matrix extract prepared using 1 M urea solution was determined by the EIA method as described in Example 7.\nFurthermore, the amount of type I and type IV collagen in the culture supernatant was determined by the EIA method. Thus, 100 μl of the culture supernatant was added to a 96-well microtiter plate (manufactured by Nunc), and the plate was incubated overnight at 4° C. After washing, it was blocked using the above 1% BSA solution, and then 5000-fold diluted rabbit anti-mouse type I collagen antibody (manufactured by LSL) or rabbit anti-mouse type IV collagen antibody (manufactured by LSL) was added, and was further incubated at room temperature for 2 hours. After washing, alkaline phosphatase-labeled goat anti-rabbit Ig antibody (manufactured by TAGO) was added, and was further incubated at room temperature for one hour. Then the substrate solution (manufactured by Sigma) was added and absorbance at […] was measured. As a standard, mouse type I collagen (manufactured by Chemicon) or mouse type IV collagen (manufactured by Cosmobio) was used."}}, "data": [{"molecule": "TAK1-DN: polypeptide of Glu at position 77 to Gln at position 303 of TAK1 (SEQ ID NO: 4), the TAB1 binding site; dominant negative inhibitor (protein) ELRQLSRVNHPNIVKLYGACLNPVCLVMEYAEGGSLYNVLHGAEPLPYYTAAHAMSWCLQCSQGVAYLHSMQPKALIHRDLKPPNLLLVAGGTVLKICDFGTACDIQTHMTNNKGSAAWMAPEVFEGSNYSEKCDVFSWGIILWEVITRRKPFDEIGGPAFRIMWAVHNGTRPPLIKNLPKPIESLMTRCWSKDPSQRPSMEEIVKIMTHLMRYFPGADEPLQYPCQ", "values": [{"measurement": "increase of fibronectin in the culture supernatant by TGF-β addition", "setting": "[1]; HT/DN2 cells", "value": "about 2.6 fold"}, {"measurement": "increase of fibronectin in the extracellular matrix extract by TGF-β addition", "setting": "[1]; HT/DN2 cells", "value": "about 3.5 fold"}, {"measurement": "increase of fibronectin in the culture supernatant by TGF-β addition", "setting": "[1]; HT/DN14 cells", "value": "~3.0", "unit": "fold"}, {"measurement": "increase of fibronectin in the extracellular matrix extract by TGF-β addition", "setting": "[1]; HT/DN14 cells", "value": "~3.6", "unit": "fold"}, {"measurement": "increase of type IV collagen in the culture supernatant by TGF-β addition", "setting": "[2]; MED/DN3 cells", "value": "about 1.5 fold"}, {"measurement": "increase of type I collagen in the culture supernatant by TGF-β addition", "setting": "[2]; MED/DN3 cells", "value": "about 2.0 fold"}, {"measurement": "increase of type IV collagen in the culture supernatant by TGF-β addition", "setting": "[2]; MES/DN6 cells", "value": "~1.4", "unit": "fold"}, {"measurement": "increase of type I collagen in the culture supernatant by TGF-β addition", "setting": "[2]; MES/DN6 cells", "value": "about 2.0 fold"}]}]}
